Biological target: mouse TIM-3 on cells (splenic dendritic cells, D2SC1 dendritic cell line, TIM-3+ Th1 T cells) (mouse) (UniProt Q8VIM0)
Experiment: cell-based or functional assay

Sequence of UniProt Q8VIM0 (Q8VIM0 other isoform, or with tags, fused parts or gaps limits assumed): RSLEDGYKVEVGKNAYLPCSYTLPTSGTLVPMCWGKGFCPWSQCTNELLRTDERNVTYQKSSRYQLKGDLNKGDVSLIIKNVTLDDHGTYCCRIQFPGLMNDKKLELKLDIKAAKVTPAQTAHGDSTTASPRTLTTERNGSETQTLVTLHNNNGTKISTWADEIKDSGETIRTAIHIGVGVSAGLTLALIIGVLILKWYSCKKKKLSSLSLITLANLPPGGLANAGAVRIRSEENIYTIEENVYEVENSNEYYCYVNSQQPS

production of TNF-α in response to LPS and LPS plus galectin-9, TIM-3-/- DCs relative to wild type DCs: 30 to 40%
Substance: recombinant human galectin-9 (from UniProt O00182 1-355) (ligand)

Reference: patent publication US20100061992A1
